From the supplement of paper PMC5998384

Assays:
[1] = system: HeLa Kyoto; assay: thermal stability score vs G1/S (z-score of summed log2 fold changes over temperatures); higher = more thermally stable than in G1/S
[2] = system: HeLa Kyoto; assay: solubility change mitosis vs G1/S (difference of NP-40 vs SDS log2 ratios) (log2 ratio difference); higher = more soluble in mitosis
[3] = system: HeLa Kyoto; assay: melting temperature (median over replicates), in situ; higher = more thermally stable
[4] = system: HeLa Kyoto; assay: solubility in G1/S (NP-40 vs SDS abundance) (log2 ratio); higher = more soluble; conditions: cell cycle stage: G1/S
[5] = cell cycle stage: early G1 (4.5 h after nocodazole release)
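Throughout, for melting temperature (median over replicates), in situ: HeLa Kyoto cells synchronized by double thymidine or nocodazole block, proteins quantified by TMT10plex mass spectrometry, three independent biological replicates.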
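Throughout, for solubility change mitosis vs G1/S (difference of NP-40 vs SDS log2 ratios): synchronized HeLa Kyoto cells (double thymidine block for G1/S, nocodazole release for mitosis), protein amounts in NP-40 versus SDS lysates quantified by mass spectrometry, three biological replicates.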
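Throughout, for solubility in G1/S (NP-40 vs SDS abundance): HeLa Kyoto cells arrested at G1/S by double thymidine block, proteins quantified by TMT10plex mass spectrometry in mild NP-40 versus SDS extracts, three biological replicates.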
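Throughout, for thermal stability score vs G1/S (z-score of summed log2 fold changes over temperatures): synchronized HeLa Kyoto cells, proteins quantified by TMT10plex mass spectrometry, three biological replicates, mitosis taken 0.5 h after nocodazole release, G1/S directly after double thymidine block.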

Row | Substance | thermal stability score [1, 5] | thermal stability score ([1]; cell cycle stage: mitosis) | solubility change mitosis (log2) [2] | melting temperature ([3]; cell cycle stage: G1/S) [°C] | melting temperature ([3]; cell cycle stage: mitosis) [°C] | solubility in G1/S (log2) [4]
1 | MALDFLAGCAGGVAGVLVGHPFDTVKVRLQVQSVEKPQYRGTLHCFKSIIKQESVLGLYKGLGSPLMGLTFINALVFGVQGNTLRALGHDSPLNQFLAGAAAGAIQCVICCPMELAKTRLQLQDAGPARTYKGSLDCLAQIYGHEGLRGVNRGMVSTLLRETPSFGVYFLTYDALTRALGCEPGDRLLVPKLLLAGGTSGIVSWLSTYPVDVVKSRLQADGLRGAPRYRGILDCVHQSYRAEGWRVFTRGLASTLLRAFPVNAATFATVTVVLTYARGEEAGPEGEAVPAAPAGPALAQPSSL [SLC25A29] | -0.402 | -0.997 | -0.0388 | 53.2 | 52.3 | 0.0296
2 | MAPWTLWRCCQRVVGWVPVLFITFVVVWSYYAYVVELCVFTIFGNEENGKTVVYLVAFHLFFVMFVWSYWMTIFTSPASPSKEFYLSNSEKERYEKEFSQERQQEILRRAARALPIYTTSASKTIRYCEKCQLIKPDRAHHCSACDSCILKMDHHCPWVNNCVGFSNYKFFLLFLLYSLLYCLFVAATVLEYFIKFWTNELTDTRAKFHVLFLFFVSAMFFISVLSLFSYHCWLVGKNRTTIESFRAPTFSYGPDGNGFSLGCSKNWRQVFGDEKKYWLLPIFSSLGDGCSFPTRLVGMDPEQASVTNQNEYARSSGSNQPFPIKPLSESKNRLLDSESQWLENGAEEGIVKSGTNNHVTVAIEN [ZDHHC20] | -0.885 | -1.86 | -0.0867 | 55.1 | 58.2 | -0.00639
3 | MAMDQVNALCEQLVKAVTVMMDPNSTQRYRLEALKFCEEFKEKCPICVPCGLRLAEKTQVAIVRHFGLQILEHVVKFRWNGMSRLEKVYLKNSVMELIANGTLNILEEENHIKDALSRIVVEMIKREWPQHWPDMLIELDTLSKQGETQTELVMFILLRLAEDVVTFQTLPPQRRRDIQQTLTQNMERIFSFLLNTLQENVNKYQQVKTDTSQESKAQANCRVGVAALNTLAGYIDWVSMSHITAENCKLLEILCLLLNEQELQLGAAECLLIAVSRKGKLEDRKPLMVLFGDVAMHYILSAAQTADGGGLVEKHYVFLKRLCQVLCALGNQLCALLGADSDVETPSNFGKYLESFLAFTTHPSQFLRSSTQMTWGALFRHEILSRDPLLLAIIPKYLRASMTNLVKMGFPSKTDSPSCEYSRFDFDSDEDFNAFFNSSRAQQGEVMRLACRLDPKTSFQMAGEWLKYQLSTFLDAGSVNSCSAVGTGEGSLCSVFSPSFVQWEAMTLFLESVITQMFRTLNREEIPVNDGIELLQMVLNFDTKDPLILSCVLTNVSALFPFVTYRPEFLPQVFSKLFSSVTFETVEESKAPRTRAVRNVRRHACSSIIKMCRDYPQLVLPNFDMLYNHVKQLLSNELLLTQMEKCALMEALVLISNQFKNYERQKVFLEELMAPVASIWLSQDMHRVLSDVDAFIAYVGTDQKSCDPGLEDPCGLNRARMSFCVYSILGVVKRTCWPTDLEEAKAGGFVVGYTSSGNPIFRNPCTEQILKLLDNLLALIRTHNTLYAPEMLAKMAEPFTKALDMLDAEKSAILGLPQPLLELNDSPVFKTVLERMQRFFSTLYENCFHILGKAGPSMQQDFYTVEDLATQLLSSAFVNLNNIPDYRLRPMLRVFVKPLVLFCPPEHYEALVSPILGPLFTYLHMRLSQKWQVINQRSLLCGEDEAADENPESQEMLEEQLVRMLTREVMDLITVCCVSKKGADHSSAPPADGDDEEMMATEVTPSAMAELTDLGKCLMKHEDVCTALLITAFNSLAWKDTLSCQRTTSQLCWPLLKQVLSGTLLADAVTWLFTSVLKGLQMHGQHDGCMASLVHLAFQIYEALRPRYLEIRAVMEQIPEIQKDSLDQFDCKLLNPSLQKVADKRRKDQFKRLIAGCIGKPLGEQFRKEVHIKNLPSLFKKTKPMLETEVLDNDGGGLATIFEP [XPO5] | 0.753 | 2.34 | -0.175 | 49 | 48.9 | -0.158
4 | FAM208A | 0.605 | 0.529 | 0.524 | 49.7 | 50.2 | -0.847
5 | MDQCVTVERELEKVLHKFSGYGQLCERGLEELIDYTGGLKHEILQSHGQDAELSGTLSLVLTQCCKRIKDTVQKLASDHKDIHSSVSRVGKAIDKNFDSDISSVGIDGCWQADSQRLLNEVMVEHFFRQGMLDVAEELCQESGLSVDPSQKEPFVELNRILEALKVRVLRPALEWAVSNREMLIAQNSSLEFKLHRLYFISLLMGGTTNQREALQYAKNFQPFALNHQKDIQVLMGSLVYLRQGIENSPYVHLLDANQWADICDIFTRDACALLGLSVESPLSVSFSAGCVALPALINIKAVIEQRQCTGVWNQKDELPIEVDLGKKCWYHSIFACPILRQQTTDNNPPMKLVCGHIISRDALNKMFNGSKLKCPYCPMEQSPGDAKQIFF [RMND5A] | 0.294 | 0.672 | -0.047 | 51.1 | – | 0.298
